Assay: soluble on expression in E. coli; label from the status in PepcDB or PDB records

Sequence | soluble on expression in E. coli
MTEYGGGEVYLLDLDSVVDGSALRMISSGGLRGRVLIHSALVDYLYSEAKRGRSAGYAGLAELSRLMDAGVGDVEIVVVEDDARVQPRDEGELKSVLRRYALRVGATLVTSDPVQARAARALGVSVLFTGRSRTGRIRIEEFFDGRTMSVHLKEGVPPLAKVGKPGSWMFVSLSDKPLTRAEIEEIAREIIEASALEEEGFIEIDRSGSTIVQLKDYRIVITRPPLSDGWEVTAVKPVAKLRLEDYSLPEKLYNRLLERAEGILIAGAPGMGKTTFAQALATFYAEQGKVVKTIESPRDMRLPPNVTQYSKNYADLGELHDILLLSRPDYTVYDELRSDEDFQLYVDLRLAGIGMIGVVHATTPIDAVQRFLRRVELGMIPSIIDTVIFIDSGEVSKVYELSITVKLPTGLREAELSRPVVEVRDFITGELEYEIYTFGEQTMVVPVRERRGRGEAAILGAIRKLLPDAEVEVRDETLIVRLPPRSSRVTARRLKRAKKLAEKHGYDIRFMPL | soluble
MIKIYNGDKLTRQPFFIKLINYLQIHDDVTLRQIKRNFADTEHLERSIEDYVQAGYVLRENKHYYNAFELLENLDGLTLDSQIFVDDQSSIYQDLLALTFETYLSNQTNAALIIEKTDISRDALTLSNYFFKLNENFPLSRKQKPLYHLLGDVNPNYALKYMTTFLLKFWGKDVVKQKRPDIFVQALVLLGYLEQVGKQSYCLKMTFDKEKLIFAS | not soluble
MHTLEQLRAGALTGIQALKLSENLTEVPAEVFQLADTLEILDLSGNRLHSLPQEMACLTRLRILFLSDNDFTIFPEVLKELKQLDMLGIKANNIQVIAEDAIPVSLRWLILTDNCIEALPVSIGRCTKLQKVMLAGNQLSGLPDELAACRNIELLRISANNMHTFPEVVKQLPRLAWLAYSSNPFQVNRSSFNALPVIAWENVALMEQLGAGASGIIYKARLNTGKSPEDVAVKVFKGAVTSDGLPEDEMTACMQAGRNSHLVSVLGVIGGHPEGMHGLVMELIPAEYKNLGRPPSFVTCTRDTFAAGTRFTAQQMLLILKGVAEAAKQLHDNGIMHGDLYAHNTLINEKYHSLFGDFGAATLYDKNNRDEAFFLERLDVRAFGCLADDLLQYSVCTKEDEWCLETLKRLSAGCMNEEPDKRPAFNTIVYELQLLQNTHLEHHHHHH | soluble
MNLQHHFLIAMPALQDPIFRRSVVYICEHNQNGAMGIIVNKPLENLQIEGILEKLKITPESRDSAIRLDKAVMLGGPLAEDRGFILHTPPSRFASSIRISDNTVITTSRDVLETLGTQQQPSDVLVALGYASWDKGQLEQELLDNAWLTAPADLNILFKTPIAERWREAAKLIGIDILTMPGVAGHALEHHHHHH | soluble
MSLKQAMGYLRQSTTKQQSLAAQKQTIKVLAEKHNIQHITFYSDKQSGRTDKRNGYQQITELIQQGQCDVLCCYRLNRLHRNLKNALKLMKLCQTYHVHILSVRDGYFDMNKAFDRLKLNIFISLAELESDNIGEQVKNGLREKAKQGKLITTHAPFGYHYHNGTFTIDTVKSPTVKAVFNYYLQGYGYKKIAQYLEADNKFINRKPYQVRNIILNPNEGHHHHHH | not soluble
MKVNTWFGVLELDSNGKTLSSEVFPKDIRELALRSLSLRESRQNLPPEGFDLKTAALECGFTESLSEYYSLLHKVTLETVKLQVSQALTPDQRIIQAVEALDDINETTNSLSERLFEWYGGYFPESGLSGEELAVFISRYGSRENLPPEDPHYLKAKNSMGAKLEAADEVLLKGLAESVCSLYERRKQIEAYIESSMEILAPNLALLAGPMLGARLISIAGSLEKLAAFPSSTIQVIGASKALFKHLRSRAPSPKHGIIYSHPLINTSPWWVRGKVARALAAKLSLAARIDFYSAKRNPSLENELEEKIRKIRAENPRPPQKRQEIRAKPKKKRRKLEHHHHHH | soluble
MKFYRRIEPIKAMTFDLDDTLYDNHPVIIRMESELLTWLQQTHPAVAHMEKADWLQVKKHVLQQSPDLKSDVTLWRLVQLKHAFLSVGYDEAQAQVAAEEGVQLALEWRSQFDVPQQSL | not soluble
MPTNQDLQLAAHLRSQVTTLTRRLRREAQADPVQFSQLVVLGAIDRLGGDVTPSELAAAERMRSSNLAALLRELERGGLIVRHADPQDGRRTRVSLSSEGRRNLYGNRAKREEWLVRAMHACLDESERALLAAAGPLLTRLAQFEEP | soluble
MGSDKIHHHHHHMGRTLGVGTVTPNLIGAHRDLIQRYGGHYPVISAHIWFDGTGLDPRYQYVTVLRDPVDRFISWLYFIDKDVELTEDTRELKVGAQLFLRSEGEETNQTFMRSASNPYVNNFSSVVMRCNASWQQKMVAALSVLTDYDLVGFQADLPQFIEQLAKLLHVINYVSLRPVNVTSSRPQRDGISEKMLHAIRKLTEWDLELYSEIQRMANRQAPTIGVSCNIQPFNREFGDWGFKARKSSNVYWLGSYLTHYLAKDLSTRNGSVAGRALVSNGAKGYLCHGPYLDLDPGHYCAVANGVWITRGVTCNADVCSGKGAVLHAEETLVDLGAKGTEWSLPVDFALDEETTSVEFRLMVPDEHQVQLNTVTIVNEKMVMTILGLEPDSHAANRGVEKQNSGSTLIFPVQMSSKIGLRVGTTLQTTGQEGFLCYGPYMTLSRGIYRVNLMGSIGPQGLAGAYADIVCDAGKKGIHNEPLAITPFNEYVDSTVGKPWMFFLEQDVSDLEIRLWVSNQTEINLCGIVLQQIEET | not soluble
MMTDRTERRRRLTHAACTPSANNQRTTRLPPHPGFFSWSNPACDDGLFLYRTTVSRGVDTQRRRRSHPGFFSCRYHPSTVSLARRHRGPGKRISLRTEISKDADPISTVTETRWFLLNFQCIEPPLEHHHHHH | soluble
MALLREYKEIAYQWGIWKTEESPEELLALLPDPERYEQQLTLFSSPHRKLEWLSVRVLLYQLLGEEKTIEYAPSGKPHLADSSYFISISHTRGYVAVILSPVSEVGIDIEQYGQRVHKVAHKYMRPDELISEYQGEDTWSLLLHWSAKEVMFKCMDTSEVDFREHLRIMPFQVCEHGEFPAEEYRTEHKKKFMIRYLLHPDFVMTWQVTSAYSVNECDIMKKMQ | not soluble
MPNQNFNAQLAEAISALNTPNFTPKLMSVIHSIFDFDCAIILGYREGKHPIYLYDSIENERELLFQRYLTNSFQNDPFFQNLNQHKQQGIFTLKDVAKKGIEYQTYRKQFYDQTGWKDELSMLVEIESGRWVILYFGCLREGKRFSAAQINNLRSHFSVLQSLCQQHWKQAEFNLSEPVVRPDAYTGNMKVAIEQALSSFGIE | not soluble
MPESIFKQISLDILKLHRDSVYSLLATSGCNCQVHEAAYVNIDGKYYIALSCEPEVGEVKTGILLIEDESRNLRLSWVGSARELDCKDNAYKRALSALSRKLGRCKDRLHTAVQPFLLELVPEKGRFSVGDEEVWISRNDLVRALYPVGYSMRQAVFQI | not soluble
MGSDKIHHHHHHMDTAKTKPFDEMFLQDEVIRPIYAEYAAWLQDVPHQQLESKRQEAELLFRRVGITFNVYGEDAGAERLIPFDVVPRILSASEWARLSDGAIQRVKALNMFLHDVYHDQEIIKAGIVPSSILANAQYRPEMFGVDVPGGVYAHIAGVDLVRTGENDFYVLEDNLRTPSGVSYMLENRKMMMRLFPELFRRYPVAPVEHYPQVLLNNLRAVAQAGVHEPTVVLLTPGAYNSAYFEHAFIAQQMGIELVEGQDLFVRNNAVYMRTTEGPKRVDVIYRRIDDDFIDPLSFRPDSMLGVPGLLSVYRNGGVTLANAVGTGVADDKDTYIYVPEMIRFYLGEEPILSNVPTYQLSKADDLKYVLDNLAELVVKEVQGSGGYGMLVGPAASKQELEDFRQRILANPANYIAQPTLALSTCPTLVETGIAPRHVDLRPFVLSGKTVSLVPGALCRVALREGSLVVNSSQGGGTKDTWILKD | not soluble
MSVNPFFDPRTLGEMVFGDNGRLDREYVPISENNDDLSDCRNEIVDTHEKFSVNLNVPDVKPEELKINLEGRKLSIKAEHQEIENDNISTTQTYSKSIVLPEDVDVTHLSSNLSEDGKLLIEVPKVEAKKTNFFGFLSKFRCMPESQ | not soluble
MYYHALKLSRLAMLTLAGVAVSASAIAADSAPTSQIGPTAEAYIVSHPDKVGEVVATYLAEHPEFLVAASETLHQRQQIAQQQAYVQLALQYRAELLSSSSPSVGPNEAKAAVVMFFDYQCSWCSKMAPVVENLIKANPDTRFIFKEFPIFSSRWPVSGLAARVGEQVWLTQGGAKYLDWHNALYATGKVEGALTEHDVYTLAQHYLTPTQLAAVKEAQSSGAVHDALLTNQALAQHMDFSGTPAFVVMPQTQDGDVKRVTVIPGSTTQDMLQMAIQKAKG | not soluble
MAGDPMNEQSQAKSPDTLRAMVAGTLANFQHPTLKHNLTTLKALHHVAWMDDTLHVELVMPFVWNSAFEVLKEQCSADLLRITGAKAIDWKLSYNIATLKRVKNQPGINGVKNIIAVSSGKGGVGKSSTAVNLALALAAEGAKVGVLDADIYGPSIPTMLGAEDQRPTSPDGTHMAPIMSHGLATNSIGYLVTDDNAMVWRGPMASKALMQMLQETLWPDLDYLVLDMPPGTGDIQLTLAQNIPVTGAVVVTTPQDIALIDAKKGIVMFEKVEVPVLGIVENMSMHICSNCGHHEPIFGTGGAQKLAEKYHTQLLGQMPLHISLREDLDRGTPTVVSRPESEFTAIYRELADRVAAQLYWQGEVIPGEIAFRAVLEHHHHHH | soluble
SNAMAHEAQKAIARNSLLIRSLPEQHVDALLSQAVWRSYDRGETLFLQEEKAQAIHVVIDGWVKLFRMTPTGSEAVVSVFTRGESFGEAVALRNTPYPVSAEAVTPCEVMHIPSPVFVSLMRRDPEICISILATTFGHLHSLVAQLEQLKAQTGAQRVAEFLLELCDCDTGACEVTLPYDKMLIAGRLGMKPESLSRAFSRLKAAGVTVKRNHAEIEDIALLRDYAESDPADSWSES | soluble
TLINHLKSLKSQVSAKSASETSQTKQNKTFLAFTTVNADQKAIFDVGKLNGKTAKIIINATETTNAKISTLQEKEAIVLKAPQRFESTDPFPI | not soluble
RCPKGSKAYGSHCYALFLSPKSWTDADLACQKRPSGNLVSVLSGAEGSFVSSLVKSIGNSYSYVWIGLHDPTQGTEPNGEGWEWSSSDVMNYFAWERNPSTISSPGHCASLSRSTAFLRWKDYNCNVRLPYVCKFTD | soluble
MGHHHHHHSHDHYGCKQCSSLRSIQNLNSLVDKTSWIPSSVAEALGIVPLQYVFVMTFTLDDGTGVLEAYLMDSDKFFQIPASEVLMDDDLQKSVDMIMDMFCPPGIKIDAYPWLECFIKSYNVTNGTDNQICYQIFDTTVAEDVI | not soluble
MNALIVPQWPLPKGVAACSSTRIGGVSLSPYDSLNLGAHCGDNPEHVEENRKRLFAAGNLPSKPVWLEQVHGKNVLRLTGEPYASKRADASYSNTPGTVCAVMTADCLPVLFCNREGTEVAAAHAGWRGLCEGVLEETVTCFADKPENIIAWLGPAIGPAAFEVGPEVRDAFLAKDAQADSAFLPHGEKFLADIYQLARQRLANTGVEHVYGGDRCTFSESETFFSYRRDKTTGRMASFIWLI | soluble
MSLNRPAPVEISYENMRFLITHNPTNATLNKFTEELKKYGVTTLVRVCDATYDKAPVEKEGIHVLDWPFDDGAPPPNQIVDDWLNLLKTKFREEPGCCVAVHCVAGLGRAPVLVALALIECGMKYEDAVQFIRQKRRGAFNSKQLLYLEKYRPKMRLRFRDTNGEGHHHHHH | soluble
MGSDKIHHHHHHMNRTAVGVDIAKSVFQVHYVDPETGEIVNKPIKRAKFLEFFANRARCLIGMEACGGAQHWARQLMKMGHEIRLMPAEFVKAFNIRNKNDAADARAIWLAVQQPGKPVAVKTEMQQAMLALHRMRRQLVTFRTMQINGLRGLPTEYGEVMGRGRAALDKAIPEVLRRVAERLPAVVIDTLREQWNGLTKLDEQVACIERRMREWKKQDKAVQAISEIPGVGLLTATAAVAMMGDAKAFSSGREFAAWAGLVPKQTGSGGKVNLHGISRRGDTYLRTLLIHGARSVLTHAKDPGPWVEQMKKRRPLNVVVVALANKIARTIWAGTFLRYSYNFP | not soluble
